Experimental data as given in US20190086411A1 (ROCHE SEQUENCING SOLUTIONS, published 2019).

molecular target: T1, human prostate specific antigen (PSA) labelled with biotin (human, UniProt P07288 25-261, labelled with biotin using EZ-Link NHS-PEG4-biotinylation kit); experiment: Double Substitution/Deletion Array, biotin-PSA, Streptavidin Cy5 detection
T1 construct: Applied in solution at 100 ng/ml to the peptide arrays and detected with Streptavidin Cy5
Method: (§1) Binding Assay: PSA labelled with biotin using EZ-Link NHS-PEG4-biotinylation kit (Thermo Fisher Sci., Inc. Rockford, Ill.) was incubated in SecureSeal hybridization chamber (Grace Bio-Labs, Bend, Oreg.) at concentration 100 ng/ml in 1×TE binding buffer with 1% alkali soluble casein at 25° C. for 12 hrs. Array was washed 3× with 1×TE buffer and stained with Streptavidin Cy5 in 1× binding buffer with 1% alkali soluble casein at 25 C for 1 hr, and washed 3× with 1×TE buffer and finally with 0.1×TE buffer and scanned using a 2 micrometer MS200 scanner (Roche/Nimblegen, Madison, Wis.).
The top sequences selected from the Extension Array (Table 2, column 3) were used to design Double Substitution/Deletion Arrays as shown in column 4 of Table 2. Single and double substitution scan performed as described in Example 3 were used to optimize PSA binders to achieve highest signal intensity and confirm specificity of each amino acid in motif sequence (Table 2, column 5).

T1 sequence (P07288 25-261 limits assumed): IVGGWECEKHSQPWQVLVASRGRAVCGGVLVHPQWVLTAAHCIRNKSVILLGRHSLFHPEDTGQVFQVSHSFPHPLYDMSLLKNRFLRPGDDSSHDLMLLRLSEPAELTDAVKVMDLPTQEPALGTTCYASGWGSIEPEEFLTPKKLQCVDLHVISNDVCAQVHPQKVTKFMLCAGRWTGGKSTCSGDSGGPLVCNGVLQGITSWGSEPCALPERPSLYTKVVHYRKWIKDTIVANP

Q: Does GTGFEVYIPGA bind?
A: Result: binds

Q: Does ASEWTVYAGNK bind?
A: Result: binds

Q: Does GTGWEVHLGKG bind?
A: Result: binds

Q: Does QSCRSILYGDG bind?
A: Result: binds

molecular target: T1, human prostate specific antigen (PSA) …; experiment: Extension Array (160,000 members, 5 replicates), biotin-PSA, Streptavidin Cy5 detection
Method: as §1
Two dominant F[QET]VY[LI] and W[QET]V[YH][LAV] clusters described above were related by having similar amino acids F or W at position 1 and V at position 3. To find other possible binder motifs we excluded sequences with these features from the 5-mer Array data and performed PEPLIB analysis with top 32 sequences from the remaining dataset as shown in FIG. 11. […] Four sequences, FEVYL (SEQ ID NO: 1), WTVYA (SEQ ID NO: 2), WEVHL (SEQ ID NO: 3), and RSILY (SEQ ID NO: 4), selected from the 5-mer Array were extended by all possible dimers at both N- and C-terminus using all 20 natural amino acids (×) to design Extension Arrays each of them consisting of 160,000 members synthesized in 5 replicates (Table 2). Top twelve sequences for each library selected by signal intensity of PSA binding were used to generate Logo plots shown in FIG. 12. […] For example, FEVYL motif (SEQ ID NO: 1) prefers exclusively P at the C-terminus, WTVYA motif (SEQ ID NO: 2) prefers acidic amino acid either D or E at the N-terminus and G at the C-terminus, whereas RSILY motif (SEQ ID NO: 4) prefers C at the C-terminus, an amino acid that was not present in the 5-mer arrays.

Q: Does NGFEVYLPG bind?
A: Result: binds

Q: Does SEWTVYAGN bind?
A: Result: binds

Q: Does TGWEVHLGK bind?
A: Result: binds

Q: Does SCRSILYGQ bind?
A: Result: binds

molecular target: human prostate specific antigen (PSA) labelled with biotin (human) (UniProt P07288); experiment: 5-mer peptide microarray, biotin-PSA 100 ng/ml, Streptavidin Cy5 detection
Sequence (P07288 25-261 limits assumed): as above

Q: With RSILY (peptide) as the molecule, how does the rank in the list of 405 sequences with the highest average signal intensity read?
A: The rank in the list of 405 sequences with the highest average signal intensity was 307 rank.

Q: How did the rank by binding signal to PSA (among 405 top sequences) turn out when WTVYA (peptide) was run?
A: Its rank by binding signal to PSA (among 405 top sequences) is 3 rank.

Q: With FEVYL (peptide) as the molecule, how does the rank by binding signal to PSA (among 405 top sequences) read?
A: The rank by binding signal to PSA (among 405 top sequences) was 1 rank.

Q: Which rank by binding signal to PSA (among 405 top sequences) does the source give for WEVHL (peptide) here?
A: Its rank by binding signal to PSA (among 405 top sequences) is 28 rank.
